Test [1] addresses T1, human GFRα3 expressed with a C-terminal mFc tag (human).
T1 construct: also called hGFRα3-mFc
T1 chain: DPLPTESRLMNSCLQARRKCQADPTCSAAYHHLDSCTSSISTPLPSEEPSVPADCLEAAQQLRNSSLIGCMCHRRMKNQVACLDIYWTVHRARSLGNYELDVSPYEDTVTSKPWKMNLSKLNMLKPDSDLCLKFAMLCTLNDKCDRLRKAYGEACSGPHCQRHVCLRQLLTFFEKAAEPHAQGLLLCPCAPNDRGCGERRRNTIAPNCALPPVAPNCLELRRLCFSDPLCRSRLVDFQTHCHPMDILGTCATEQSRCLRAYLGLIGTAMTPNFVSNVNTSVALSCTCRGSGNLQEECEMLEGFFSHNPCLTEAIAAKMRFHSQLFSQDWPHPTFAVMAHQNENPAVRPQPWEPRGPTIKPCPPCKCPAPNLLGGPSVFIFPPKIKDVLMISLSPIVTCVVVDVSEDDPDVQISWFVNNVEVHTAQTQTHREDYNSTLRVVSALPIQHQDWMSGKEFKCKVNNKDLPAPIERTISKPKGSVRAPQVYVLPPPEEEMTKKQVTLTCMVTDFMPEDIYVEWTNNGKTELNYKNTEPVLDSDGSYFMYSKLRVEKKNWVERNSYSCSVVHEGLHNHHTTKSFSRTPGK
The experiment in a line: SPR, Ab captured, 37C. Summed up: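 Biacore kinetics use antibody captured via anti-IgG and a 1:1 fit of association (up to 4 min) and dissociation (up to 20 min) phases. Analyte ranges are 200–7.4 nM for myc-myc-His constructs and 100–3.7 nM for the hFc construct.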

Test [2] concerns the target T2, human GFRα3 on HEK293/hGFRα3/hRET/SRE-luc cells (human, UniProt O60609 32-382).
T2 sequence: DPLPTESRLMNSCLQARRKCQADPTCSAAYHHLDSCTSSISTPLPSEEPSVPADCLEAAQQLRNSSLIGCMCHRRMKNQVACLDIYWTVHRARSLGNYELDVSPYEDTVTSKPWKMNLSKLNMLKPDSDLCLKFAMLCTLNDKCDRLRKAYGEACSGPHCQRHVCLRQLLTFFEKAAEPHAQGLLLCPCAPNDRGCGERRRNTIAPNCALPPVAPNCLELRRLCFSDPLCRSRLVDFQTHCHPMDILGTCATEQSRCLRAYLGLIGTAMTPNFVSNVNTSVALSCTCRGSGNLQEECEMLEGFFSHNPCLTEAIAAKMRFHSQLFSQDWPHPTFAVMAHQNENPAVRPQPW
In words: cell-based or functional assay.

Test [3] concerns the target T3, human GFRα3 expressed with a C-terminal myc-myc-hexahistidine tag (human, UniProt O60609 32-374, biotinylated (sites not given) in ELISA format 2 and in the Octet cross-competition; not in SPR).
T3 construct: also called hGFRα3-mmh; hGFRα3-mmH
In words: Octet cross-competition; biotin-hGFRα3-mmH pre-saturated with first antibody H4H2291S. How it is done: (§1) A cross-competition assay was conducted to assess the ability of select antibodies to compete with one another for binding to human GFRα3 using an Octet RED384 biosensor (Fortebio Inc.). The entire experiment was performed at 25° C. with the flow rate of 1000 rpm in Octet HBST buffer (0.01 M HEPES pH7.4, 0.15M NaCl, 3 mM EDTA, 0.05% v/v Surfactant P20, 0.1 mg/mL BSA). To assess whether 2 antibodies were able to compete with one another for binding to their respective epitopes on biotinylated recombinant human GFRα3 expressed with a C-terminal myc-myc-hexahistidine tag (biotin-hGFRα3-mmH; SEQ ID:370), around ˜1.2 nm of biotin-hGFRα3-mmH was first captured onto streptavidin-coated Octet sensor tips (Fortebio Inc, #18-5019) by submerging the tips for 1 minute into a 10 μg/mL solution of biotin-hGFRα3-mmH. The antigen coated sensor tips were then placed into wells containing 25 μg/mL solution of a first anti-GFRα3 monoclonal antibody for 4 minutes to saturate the biotin-hGFRα3-mmH surface. The sensor tips were then subsequently dipped into wells containing 25 μ/mL solution of a second anti-GFRα3 monoclonal antibody. The sensor tips were washed in Octet HBST buffer in between every step of the experiment. The real-time binding response was monitored during the course of the experiment and the binding response at the end of every step was recorded as shown in FIG. 9. The response of mAb-2 binding to biotin-hGFRα3-mmH pre-complexed with the first antibody was compared and competitive/non-competitive behavior of different anti-GFRα3 monoclonal antibodies was determined.
(In BLI a coated tip is dipped into the sample, and binding shifts an interference pattern.)

Test [4] addresses T3, human GFRα3 expressed with a C-terminal …. The experiment in a line: Octet cross-competition; biotin-hGFRα3-mmH pre-saturated with first antibody H4H2292S. How it is done:
as §1

Test [5] has the same target. In words: Octet cross-competition; biotin-hGFRα3-mmH pre-saturated with first antibody H4H2350P. How it is done: as §1

One may read the Kd as the constant that tells how readily two partners part at equilibrium. The low end stands for tighter binding, the high end for weaker binding. What is called koff is the rate constant with which the complex falls apart. Low values mean a long-lived complex, high ones a short-lived complex. The kon is the rate constant with which the complex forms.

T3 sequence (O60609 other isoform, or with tags, fused parts or gaps limits assumed): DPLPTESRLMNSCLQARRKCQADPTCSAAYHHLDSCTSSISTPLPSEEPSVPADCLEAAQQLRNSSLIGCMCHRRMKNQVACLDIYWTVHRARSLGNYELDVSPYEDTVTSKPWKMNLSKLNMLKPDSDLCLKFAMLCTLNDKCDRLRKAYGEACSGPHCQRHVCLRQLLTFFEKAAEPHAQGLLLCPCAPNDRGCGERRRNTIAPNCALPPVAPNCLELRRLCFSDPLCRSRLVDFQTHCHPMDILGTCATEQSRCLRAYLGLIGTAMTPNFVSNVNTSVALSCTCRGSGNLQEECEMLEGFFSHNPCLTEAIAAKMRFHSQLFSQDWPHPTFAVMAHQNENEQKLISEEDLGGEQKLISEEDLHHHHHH

B1: H4H2357S (antibody, human IgG4, V domains shown)
VH: EVQLVESGGGLVQPGGSLRLSCAASTFTFSSYAMTWVRQAPGKGLEWVSSISGSGDSTYYADSVKGRFTISRDNSKNTLFLQMNSLRAEDTAVYYCAKKDGPGRYYVRYGMDVWGQGTTVTVSS
VL: DIQMTQSPSSVSASVGDRVTITCRASQGISSWLAWYQQKPGKAPKLLIYTTSSLQSGVPSRFSGSGSGTDFTLTISSLQPEDFATYYCQQANSFPLTFGGGTKVDIK
notes: human IgG4 Fc (H4H)
In the case of B1, in test [1], the affinity, expressed as Kd, was 0.0793 nM; the koff worked out at 9.4e-05 s⁻¹; the kon is 1.19e+06 M⁻¹ s⁻¹; the t1/2 was 123 min. Further, the “IC50 (SRE-luc, HEK293/hGFRα3/hRET cells, 100 pM hARTEMIN-mmH)” value in test [2] amounted to 4.9 nM. Also, in test [3], the “binding response of second antibody (nm)” value was 0 nm. The “binding response of second antibody (nm)” value in test [4] came to 2.43 nm. In addition, the “binding response of second antibody (nm)” value in test [5] turned out to be 2.23 nm.

B2: H4H2292S (antibody, human IgG4, V domains shown)
VH: EVQLVESGGGVVQPGRSLRLSCAASGFTFSSYGMHWVRQAPGKGLEWVSFIWYDGSNKYYADSVKGRFTISRDNSKNTLYLQMNSLTAEDTAVYYCARRGILTGTTAFDIWGQGTMVTVSS
VL: DIQMTQSPSSLSASVGDRVTITCRASQSISSYLNWYQQKPGKAPKLLIYAASSLQSGVPSRFSGSGSGTDFTLTIRSLIPEDFATYYCQQTYNTPFTFGPGTKVEIK
notes: human IgG4 Fc (H4H)
In test [1], B2 registered a Kd of 0.0432 nM, a koff of 2.57e-05 s⁻¹, a kon of 596000 M⁻¹ s⁻¹ and a t1/2 of 449 min. Moreover, the “IC50 (SRE-luc, HEK293/hGFRα3/hRET cells, 100 pM hARTEMIN-mmH)” value in test [2] came to 4.6 nM. In addition, the “binding response of second antibody (nm)” value in test [3] is 1.94 nm. The “binding response of second antibody (nm)” value in test [4] turned out to be 0.11 nm. In test [5], the “binding response of second antibody (nm)” value was 1.74 nm.

B3: H4H2352S (antibody, human IgG4, V domains shown)
VH: EVQLVQSGAEVKKPGASVKVSCKASGYTFTNYGITWVRQAPGQGLEWMGWISAYNGNTGYAQKFQGRVTMTTDTSTSTAYMELRSLRSDDTAVYYCAREDYDFWRAFDIWGQGTMVTVSS
VL: EIVLTQSPGTLSLSPGERATLSCRASQSVSSTYLAWLQQKPGQAPRLLIYGASSRATGIPDRFSGSGSGTDFTLTINRLEPEDFAVYYCQQYAYSPYTFGQGTKLEIK
notes: human IgG4 Fc (H4H); also called H4H2352S-1
As to B3, in test [1], binding was put at a Kd of 0.0132 nM, the koff was 3e-05 s⁻¹, the kon is 2.28e+06 M⁻¹ s⁻¹ and the t1/2 was 385 min. Also, the “IC50 (SRE-luc, HEK293/hGFRα3/hRET cells, 100 pM hARTEMIN-mmH)” value in test [2] stood at 0.92 nM. Besides, in test [3], the “binding response of second antibody (nm)” value worked out at 2.03 nm. Besides, in test [4], the “binding response of second antibody (nm)” value was found to be 0.34 nm. For the same molecule, the “binding response of second antibody (nm)” value in test [5] was found to be 2.06 nm.

The values above are taken from patent publication US20140056903A1 (Regeneron, published 2014).
